Our source for the Mean IC50, phenotypic IC50 assay and Median IC50, phenotypic IC50 assay values is patent publication US20200308257A1.

What all share (assay): cell-based or functional assay
Experiment [1] has as its target H1N1 circulating viruses (n=18) and vaccines strains (n=3).
Experiment [2] deals with all H3N2 and H1N1 circulating strains and vaccines strains (n=55 viruses).
Experiment [3] has as its target H3N2 circulating viruses (n=30) and vaccines strains (n=4).

B1: VIS410 (antibody, V domains shown)
VH: QVQLLETGGGLVKPGQSLKLSCAASGFTFTSYAMHWVRQPPGKGLEWVAVVSYDGNYKYYADSVQGRFTISRDNSKNTLYLQMNSLRAEDTAVYYCAKDSRLRSLLYFEWLSQGYFNPWGQGTTLTVSS
VL: DIQMTQSPSSLSASVGDRVTITCRSSQSITFDYKNYLAWYQQKPGKAPKLLIYWGSYLESGVPSRFSGSGSGTDFTLTISSLQPEDFATYYCQQHYRTPPSFGQGTKVEIK
For B1, the Mean IC50, phenotypic IC50 assay amounted to 0.6 µg/mL in experiment [1] and 1.3 µg/mL in experiment [3]. In experiment [2], this molecule displayed a Median IC50, phenotypic IC50 assay of 0.9 µg/mL.
